What was measured:
GATA-2 = GATA-2 (UniProt O09100); experiment: cell_activity; conditions: NIH3T3 luciferase
GATA-3 = GATA-3 (UniProt P23772); experiment: cell_activity; conditions: NIH3T3 luciferase
Chain of GATA-3 (P23772 whole entry): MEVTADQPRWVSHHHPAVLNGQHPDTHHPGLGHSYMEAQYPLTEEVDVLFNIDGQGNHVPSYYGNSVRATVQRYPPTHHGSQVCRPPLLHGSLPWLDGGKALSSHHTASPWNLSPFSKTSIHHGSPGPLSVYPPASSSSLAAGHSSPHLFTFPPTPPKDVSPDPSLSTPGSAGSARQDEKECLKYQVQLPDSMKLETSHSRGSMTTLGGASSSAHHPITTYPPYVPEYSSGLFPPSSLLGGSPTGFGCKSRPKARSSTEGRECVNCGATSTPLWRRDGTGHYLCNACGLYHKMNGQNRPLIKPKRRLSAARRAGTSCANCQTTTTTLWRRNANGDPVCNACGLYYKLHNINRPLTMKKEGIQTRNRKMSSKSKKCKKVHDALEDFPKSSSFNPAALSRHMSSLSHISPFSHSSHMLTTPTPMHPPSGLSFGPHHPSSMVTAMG

Chain of GATA-2 (O09100 whole entry): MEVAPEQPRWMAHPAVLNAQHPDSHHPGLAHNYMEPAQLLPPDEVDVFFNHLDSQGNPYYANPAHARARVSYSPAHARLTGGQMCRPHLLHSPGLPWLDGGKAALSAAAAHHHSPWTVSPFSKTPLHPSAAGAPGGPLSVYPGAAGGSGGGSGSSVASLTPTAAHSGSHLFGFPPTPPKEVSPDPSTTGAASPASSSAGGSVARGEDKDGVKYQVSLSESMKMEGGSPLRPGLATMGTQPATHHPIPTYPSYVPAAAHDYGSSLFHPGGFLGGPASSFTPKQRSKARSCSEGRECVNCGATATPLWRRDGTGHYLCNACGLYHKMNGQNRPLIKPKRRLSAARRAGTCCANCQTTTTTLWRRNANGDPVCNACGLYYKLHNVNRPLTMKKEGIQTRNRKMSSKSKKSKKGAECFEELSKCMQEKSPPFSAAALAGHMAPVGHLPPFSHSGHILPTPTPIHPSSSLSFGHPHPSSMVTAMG

PPAR-gamma2 promoter -603 to +62 luciferase reporter
activity (fold suppression) (GATA-2): 5
activity (fold suppression) (GATA-3): 5

Source: patent publication US20010046966
